# Assay: yeast display, Sf9 membrane polyspecificity reagent, FACS + sequencing; frameworks hold sequencing errors
# Method in brief: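 Sorting gates, low and high (top ~1%), were placed on anti-HA fluorescence to track expression and on streptavidin fluorescence to track reagent binding. A clone's polyreactivity label is taken from the gate it came out of. The reagent was 10% biotinylated, detergent-solubilized Sf9 membrane, applied for 1 hour at 4 °C to galactose-induced yeast display cells.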
row,Sequence,polyreactivity (PSR sort gate)
1,QVQLVESGGGLVQAGGSLRLSCAASGSNLTFYAMGWYRQAPGKERELVAAITWRGGSTYYADSVKGRFTISRDNAKNTVYLQMNSLKPEDTAVYYCAAEQVGYYLNWRDYWGQGTQVTVSS,high polyreactivity
2,QVQLVESGGGLVQAGGSLPLSCAASGSTFGYNAMGWYRQAPGKERELVAAITWTGASTYYADSVKGRFTISRDNAKNTVYLQMNSLKPEDTAVYYCNARFGKRGYSPPYDYWGQGTQVTVSS,low polyreactivity
3,QVQLVESGGGLVQAGGSLRLSCAASGFTFGYYAMGWYRQAPGKERELVAAITFRGGRTYYADSVKGRFTISRDNAKNTVYLQMNSLKPEDTAVYYCAALSLVRYYHNANYYPYYYWGQGTQVTVSS,high polyreactivity
4,QVQLVESGGGLVQAGGSLRLSCAASGRIFRFYAMGWYRQAPGKERELVASISSTGGSTYYADSVKGRFTISRDNAKNTVYLQMNSLKPEDTAVYYCNTVYGYVTTYGYWGQGTQVTVSS,high polyreactivity
5,QVQLVESGGGLVQAGGSLRLSCAAAGRTIRRIAMGWYRQAPGKERELVAAISKSGGRTYYADSVKGRFTISRDKAKKTVYLQMNSMKPEDTAVYYCGAYDTVYNSGDYDYWGQGTQVTVSS,high polyreactivity
6,QVQIVESGGGLVQAGGSLRLSCAASGSTFGYYTMGWYRQAPGKERELVAAISWSGGSTYYADSVKGRFTISRDNAKNTVYLQKNSLKPEDTAVYYCAALGYTYKYYSYYWGQGTQVTVSS,high polyreactivity
7,QVQLVESGGGLVQAGGSLRLSCAASGSTFWLYAMGWYRQAPGKERELVAAISSTGNTNYADSVKGRFTISRDNAKNTVYLQMNSLKPEDTAVYYCAADSWDYDSRMDYWGQGTQVTVSS,low polyreactivity
8,QVQLVESGGGLVQAGGSLRLSCAASGRIFYIIAMVWYRQAPGKEWELVASITGSGGRTYYADSVKGRFTISRDNAKNTVYLQMNSLKPEDTAVYYCNADLYVGYLYYLYDYWGQGTQVTVSS,low polyreactivity
9,QVQLVESGGGLVQAGGSLRLSCAASGSILVNMGWSRQAPAKERELVAAIRYGGGRTYYADSVKGRFTISRDNAKNTVYLQMNSLKPEDTEVYYCAKKYIWVWAPAKQYGFDSWGQGTQVTVSS,low polyreactivity
10,QVQLVESGGGLVQAGGSLRLSCAASGSIFIPNAMGWYRQAPGTERELVAAISLSDTTTYYADSVKGRFTISRDNAKNTVYLQMNSLKPEDTAVYYCAADYWFYPTSPDMDYWGQGTQVTVSS,low polyreactivity
11,QVQLVESGGGLVQAGGSLRLSCAASGRIFKGYAMGWYRQAPGKERELVAAITWRGGTTYYADSVKGPFTISRDNAKNTVYLQMNSLKPEDTAVYYCAAANWQRYYYWGQGTQVTVSS,high polyreactivity
12,QVQLVESGGGLVQAGGSLRLSCAASGSTLPNNAMGWYRQAPGKERELVAAISWRGTRTYYADSVKGRFTISRDNAKNTVYLQMNSLKPEDTAVYYCAAGGVGAYDYWGQGTEVTVSS,high polyreactivity
13,QVQLQESGGVQAGGSLRLSCAASGYISRSDVMGWYRQAPGKERELVATINNGTITYYADSVKGRFTISRDNATNTVYLQMNSLKPEDTAVHYCAVVQSDTDSLYYWGQGTQVTVSS,low polyreactivity
14,QVQLVESGGGLVQAGGSLRFSCAASGITFTEYAMGWYTQAPGTERELVAAITGSGTSTYYADSVKGRFTISRDNAKNTVYLHMNSLKPEDTAVYYCAARTRGTAYNYWGQGTQVTVSS,high polyreactivity
15,QVQLVESGGGLVQAGGSLRLSCAASGFIFRSYAMGWYRQAPGKERELVAANSSSGGRTYYADSVKGRFTISRDNAKNTVYLQMNSLKPEDTAVYYCATSLYTDNSWDNYWGQGTQVTVSS,high polyreactivity
16,QVQLVESGGGFVQAGGSLRLSCAASGRIFYGYAMGWYRQAPGKERELVAAISSGGITYYADSVKGRFTISRDNAKNTVYLQMNSLKPEDTAVYYCAADWAYYVASYLYYTFDYWGQGTQVTVSS,low polyreactivity
17,QVQHVESGGGLVQAGGSLRLTCAATGSTFRDNAMRWYRQAPGKERELVAAIRIGGDGTYYADSVKGRFTISRDNAKNTVYLQMNSLKPEDTAVYYCAVDTEKGWRMYYWGQGTQVTVSS,low polyreactivity
18,QVQLVESGGGLVQAGGSLRLTCAASGFIFSRYTMGWYRQAPGKERELVAAISRRGGNTYYADSVKGRFTISRDNAKNTVYLQMNSLKPEDTAVYYCAADYAWPLRVTGDYWGQGTQVTVSS,low polyreactivity
19,QVQLEESGGGLVQAGGSLRLSCDASGRTFDTNAMGWYIQAPGKERELVAVITARGGNTSYADSVKGRFTISRDNSKNTVYLQMNSLKPEDTAVYYCAAPADDTVHYQNYYWGQGTQVTVSS,low polyreactivity
20,QVQLVESGGGLVQAGGSLRLSCAASGITFQNYAMGWYRQAPGKERELVAAITRSGGRTYYADSVKGRFTISRDNAMNTVYLQMNSLKPEDTAVYYCAVYGIGRPYWYDYWGQGTQVTVSS,high polyreactivity
21,QVQLVESGGGLVQAGGSLSLSCAATGSTFSLYAMGWYIQAPGKERELVAAISSSGGSTYYADSVKGRFTISRDNAKNTVYLQMNSLKPEDTAVYYCAAYRVGSYDYWGQGTQVTVSS,high polyreactivity
22,QVQLVESGGGLVQAGGSLRLSCAASGSTFVGYAMGWYRQAPGKERELVAAISRTGASTYYADSVKGRFTISRDNAKNTVYLQMNSLKPADTAVYYCAYYYSIYDYWGQGTQVTVSS,high polyreactivity

row,Sequence,polyreactivity (PSR sort gate)
1,QVQLVESGGGLVQAGGSLRLSCAASGSTFYGYAMGWYRQAPGKERELVAAISWRGGRTNYADSVKGRFTISRDNAKNTVYLQMNSLKPEDTAFYYCAARSYGITDYGMYSWGQGTQVTVSS,high polyreactivity
2,QVQLVESGGGLVQAGGSLRLSCAASGRTFWTYTMGWYRQAPGKEREFVAAITFGDGSTSYADSVKGRFTISRDNAKNTVYLQMNSLKPEDTAVYSCAKRWRRRFVDVWSLYDYWGQGTQVTVSS,low polyreactivity
3,QVQLVESGGGLDQAGGSLRLSCAASGSTLSGNAMGWYRHAPGKERELVAAITSSGGRTYYADSVKGRFTISRDNAKNTVYLQMNSLKPEDTAVYYCAARSRLGRYTYDYCGQGTQVTVSS,high polyreactivity
4,QDQLVESGGGLVQAGGSLRLSCAASGSTFPNNAMGWYREAPGKERELVATITTGGSTYYADSVKGRFTISRDNAKNTVYLQMNSLKPEDTAVYYCAADHLSYRRRYEYWGQGTQVTVSS,low polyreactivity
5,QVQLVESGGGLVQAGGSLRLSCAASGSTFYYYTMGWYRQATGKERELVAAITYRGGSTYADSVKGRFTISRDNAKNTVYLQMNSLKPEDTAVYYCAAVRRHPTHYDYWGQGTQVTVSS,high polyreactivity
6,QVQLVESGGGLVQAGGSLRLSCAASGITFLDNAMGWYRQAPGKERELVAAITSDGNTYYADSVKGRFTISRDNAKNTVYLQMNSLKPEDTAVYYCAARGFLKYVTEFDYWGQGTQVTVSS,low polyreactivity
7,QVQLVESGGGLVQAGGSLRLSCAASGSILWENAMGWYRQAPGKERELVATISVSGGGTYYADSVKGRFTISRDNAKNTVYLQMNSLKPEDTAVYYCNARYGNESQGWEDYWGQGTQVTVSS,low polyreactivity
8,QVQLVESGGGLVQAGGSLRLSCAASGITLTKYAMGWYRQAPGKERELVAAISKRGTNTYYADSVKGRFTISRDNAKNTVYLQMNSLKPEDTAVYYCNAPGHRQNGLGDYWGQGTQVTVSS,high polyreactivity
9,QVQLVESGGGLDQAGGSLGLSCAASGFTFTGYTMGWYRQAPGKERELVATISGSGGNTYYADSVKGRFTISRDNAKNTVYLQMNSLKPEETAVYYCARRRSGPRVLYYYWGQGTQVTVSS,low polyreactivity
10,QVQLVESGGGLVQAGGSLRLSCAASGSTFGVYAMGWYRQAPGKERELVATITRSGGNTYYADSVKGRFTISRDNAKNTVYLQMNSLKPEDTAVYYCAARRLYGSQRGYWGQGTQVTVSS,high polyreactivity
11,QVQLVESGGGLVQAGGSLRLSCAASGLIFKKYTMGWYRQAPGKERELVASISKSGGSTYYADSVKARFTISRDNAKNTVYLQMNSLKPEDTAVYYCAVGSTDRVSAQGSYFTYDYWGQVTQVTVSS,low polyreactivity
12,QVQLVESGGGLVQAGGSLRISCAASGRTFHYNVMGWYTQAPGKERELVAAITNTGGSTYYADSVKGRFTISRDNAKNTVYLQMNSLKPEDTAVYYCAAVIWGRRYGAYPYEYWGQGTQVTVSS,low polyreactivity
13,QVQLVESGGRLVQAGGSLRLSCAASGRTFIGYARGWYRQAPGKERELVAGISWSGGSTYYADSVKGRFTISRDNAKNTVYLQMNSLKPEDTAVYYCAARGRWSTEYGYWGQGTQVTVSS,low polyreactivity
14,QVQLVESGGGLVQAGGSLRLTCAASGSIFVNNAMGWYRQAPGKEMELVAAIRRSGGNTYYADSVKGRFTISRDNAKNTVYLQMNSLIPEDTAVYYCNVVRRADSIRAKSRDYWGQGTQVTVSS,high polyreactivity
15,QVQLVESGGGLVQAGGSLRLSCAASGFTLSYYAMGWYRQAPGKERELVASISAIGGITYYADSVKGRFTISRDNAKNTVYLQMNSLKPEDTAVYYCARQGRRYRRFDSWGQGTQVTVSS,high polyreactivity
16,QVQLVESGGGLVQAGGSLRLSCAASGSTFWAYVMGWYRQAPGKERELVAAISKSGVRTHYADSVKGRFTISRDNAKNTVYLQMNSLKPEDTAVYYCAAGGVGNLDDYWGQVTQVTVSS,high polyreactivity
17,QVQLVESGGGLVQAGGSLRLSCAASGRIFGLNAMGWSRQAPGKERELVASITYSGGSTYYADSVKGRFTISRDNAKNTVYLQMNSLKPEDTAVYYCAARIIVDDVGTKYYYWGQGTQVTVSS,high polyreactivity
18,QVQLVESGGGLVQAGGSLRLSCAASGSTFCYYGMGWYRQAPGTERELVAAISWSGGTFYADSVKGRFTISRDNAKNTVYLQMNSLKPEDTAVYYCATDYGGPITGYEYWGQGTQVTVSS,low polyreactivity
19,QVQLVESGGGVVQAGGSLRLSCAASGFTFAYYATGWYRQAPGKERELVAAISRSGGSTYYADSVKGRFTISRDNAKNTVYLHMNSLKPEDTAVYYCARDQRKLGADFDSWGQRTQVTVSS,high polyreactivity
20,QVQLVESGGGLVQEGGSLRLSCAASGITFGSYAMGWYRQAPGKERELVAAIDTSGDDTYYADSVKGRFTISRDNAKYTVYLQMNSLKPEDTAVYYCAADFPSAEVDYWGQGTQVTVSS,low polyreactivity
21,QVQLVESGGGLVQAGGSLRLSCAASGFIFSRYAMGWYRQAPGKERELVAAISRGGSTYYADYVKGRFTISRDNAKNTVYLQMNSLKPEDTAVYYCAVRQIVRYYYWGQGTQVTVSS,high polyreactivity

# — the nanobody polyreactivity screen of Harvey et al. (2022)
